# B1: human Kv3.1a channel (full-length human Kv3.1, isoform A) (natural protein, UniProt P48547 1-511, looked up)
# chain: MGQGDESERIVINVGGTRHQTYRSTLRTLPGTRLAWLAEPDAHSHFDYDPRADEFFFDRHPGVFAHILNYYRTGKLHCPADVCGPLYEEELAFWGIDETDVEPCCWMTYRQHRDAEEALDSFGGAPLDNSADDADADGPGDSGDGEDELEMTKRLALSDSPDGRPGGFWRRWQPRIWALFEDPYSSRYARYVAFASLFFILVSITTFCLETHERFNPIVNKTEIENVRNGTQVRYYREAETEAFLTYIEGVCVVWFTFEFLMRVIFCPNKVEFIKNSLNIIDFVAILPFYLEVGLSGLSSKAAKDVLGFLRVVRFVRILRIFKLTRHFVGLRVLGHTLRASTNEFLLLIIFLALGVLIFATMIYYAERIGAQPNDPSASEHTHFKNIPIGFWWAVVTMTTLGYGDMYPQTWSGMLVGALCALAGVLTIAMPVPVIVNNFGMYYSLAMAKQKLPKKKKKHIPRPPQLGSPNYCKSVVNSPHHSTQSDTCPLAQEEILEINRAGRKPLRGMSI
# notes: Voltage-gated potassium channel Kv3.1, human, shorter splice variant Kv3.1a (isoform A, α-isoform), full length, cloned from the mammalian gene collection; Homotetramer in the cryo-EM structures; the longer Kv3.1b was not used; also called shorter α-isoform of Kv3.1; KCNC1 gene product; not shown: Strep-II, C-terminal, cleaved; His10, C-terminal, cleaved; GFP, C-terminal, cleaved
# Molecular target: the molecule itself
# Assay: cryo-EM structure; purified Kv3.1a, 20 uM, in 20 mM HEPES pH 7.5, 100 mM NaCl, 50 mM KCl, 0.04% digitonin; apo, with 1 mM EDTA or with 400 uM ZnCl2; subunits within the tetrameric channel
protein,measurement,value
B1,stoichiometry N,4

# — PMC9287412, “Cryo-EM structure of the human Kv3.1 channel reveals gating control by the cytoplasmic T1 domain” (Nature Communications, 2022)
